In PMC9973270, “RdmA Is a Key Regulator in Autoinduction of DSF Quorum Quenching in Pseudomonas nitroreducens HS-18” (mBio, 2022):

What was measured:
[1] = tested on: T1, RdmA (Pseudomonas nitroreducens HS-18), ORF:ff03b8a4; experiment: EMSA; details: LightShift chemiluminescent EMSA kit (buffer per manufacturer; pH and salt not stated), 10 uL, 2 nM biotin-DNA (20 fmol; Fig 5 legend says 10 nM), 0-4 uM RdmA …
T1 sequence: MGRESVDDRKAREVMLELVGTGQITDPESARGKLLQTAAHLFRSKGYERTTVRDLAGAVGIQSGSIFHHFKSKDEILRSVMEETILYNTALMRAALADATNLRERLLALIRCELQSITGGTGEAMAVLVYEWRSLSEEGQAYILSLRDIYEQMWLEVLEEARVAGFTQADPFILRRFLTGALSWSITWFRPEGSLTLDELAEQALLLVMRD

[2] = molecular target: T2, RdmA (Pseudomonas nitroreducens, UniProt A0ABS0KS77); experiment: EMSA, inhibition of RdmA binding to biotin-labelled dmgA promoter; details: RdmA 2 uM preincubated with DSF 30 min at 30 C before promoter fragment F1 (30 min, 22 C); solvent methanol
T2 construct: gene I5I61_25840; full length, 206 residues; N-terminal His6 tag, vector pET32a, expressed in E. coli BL21(DE3); dimer proposed
T2 sequence (A0ABS0KS77 1-206): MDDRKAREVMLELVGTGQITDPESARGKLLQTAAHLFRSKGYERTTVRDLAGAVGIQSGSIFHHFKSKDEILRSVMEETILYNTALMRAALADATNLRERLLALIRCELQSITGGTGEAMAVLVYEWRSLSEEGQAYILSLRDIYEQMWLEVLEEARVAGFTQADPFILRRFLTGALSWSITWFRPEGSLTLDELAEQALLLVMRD

concentration giving complete inhibition of DNA binding [2] [mM] | Molecule | binding [1]
– | GCTTTCTCTCCCCATGGGTCCCATCTGGCCACCTTGCTCAGGGCAATTCATCGAATCGCCCCGCAAGTGCTTGTGTTGTCTGACGAAATGTAAGCCCGCGAGTGCCAACCA (double strand) [PdmgA F4] | no binding
– | GCTTTCTCTCCCCATGGGTCCCATCTGGCCACCTTGCTCAGGGCAATTCATCGAATCGCCCCGCAAGTGCTTGTGTTGTCTGACGAAATGTAAGCCCGCGAGTGCCAACCAAGCAAGCGCTTGGCCATCCAATGGTTGGGGTAGTCATCGACTCGGGGCTTTTCAACCAAGCGCTTGCT (double strand) [PdmgA F2] | binds more weakly
0.9 | CC(C)CCCCCCC/C=C\C(=O)O [DSF, cis-11-methyl-2-dodecenoic acid] | –
– | GCTTTCTCTCCCCATGGGTCCCATCTGGCCACCTTGCTCAGGGCAATTCATCGAATCGCCCCGCAAGTGCTTGTGTTGTCTGACGAAATGTAAGCCCGCGAGTGCCAACCAAGCAAGCGCTTGG (double strand) [PdmgA F3] | binds more weakly
